From patent US9999687B2, “Fluorescent imaging agents” (VisEn Medical, Inc., priority 2008, dated 2018)
[ ]: non-standard residue; d: D form. The star is where a group is joined. Cha = N[C@@H](CC1CCCCC1)C(=O)O; Pent4ynoyl = C#CCCC(=O)*; F5 = not defined here; βAla = NCCC(=O)O

Columns and labels:
[1] = tested on: activated humanized rabbit Cathepsin K; assay: Enzyme activation profile of Q92 and Q93, Cathepsin K; type: biochemical; settings: probe 0.5 μM, enzyme 0.05 μM, room temperature, 0-24 hours; panel also Cathepsin B, L, MMP-2, MMP-9; FIG. 6
Protocol: The reactions were performed with appropriate buffer at room temperature in a 96-well plate with a final assay volume of 250 μL and probe and enzyme concentrations of 0.5 μM and 0.05 μM respectively. The buffer for activated humanized rabbit Cathepsin K (Merck) was 50 mM MES (pH 5.0), 2.5 mM EDTA, 2.5 mM DTT. The buffer for Cathepsin B was 25 mM MES (pH 5.0), 1 mM DTT. The recombinant human Cathepsin B (R&D Systems) was activated in buffer of 25 mM MES (pH 5.0) and 5 mM DTT for 15 minutes at room temperature. The recombinant human Cathepsin L (R&D Systems) was activated in buffer of 50 mM MES (pH 6.0), 5 mM DTT, for 15 minutes on ice. The buffer for MMP-2 (BIOMOL) and MMP-9 (BIOMOL) was 50 mM Tris (pH 7.5), 10 mM CaCl2, 150 mM NaCl, and 0.05% Brij-35 detergent. The plate was incubated at room temperature and the activity was monitored at 0, 1, 3, 5, and 24 hours with a Gemini (Molecular Devices) plate reader at excitation wavelength 663 nm, emission 690 nm, and cut off 665 nm. The released fluorescent unit was determined by subtracting the fluorescence of the probe alone from the total fluorescence.

[2] = target: T1, recombinant human Renin (rhRenin) (Homo sapiens, UniProt P00797); assay: Enzyme activation profile of R agents, renin; type: biochemical; settings: probe 1 μM, enzyme 100 nM, 37 C, 24 hours; FIG. 11
T1 construct: purchased Proteos
T1 sequence (P00797 67-406): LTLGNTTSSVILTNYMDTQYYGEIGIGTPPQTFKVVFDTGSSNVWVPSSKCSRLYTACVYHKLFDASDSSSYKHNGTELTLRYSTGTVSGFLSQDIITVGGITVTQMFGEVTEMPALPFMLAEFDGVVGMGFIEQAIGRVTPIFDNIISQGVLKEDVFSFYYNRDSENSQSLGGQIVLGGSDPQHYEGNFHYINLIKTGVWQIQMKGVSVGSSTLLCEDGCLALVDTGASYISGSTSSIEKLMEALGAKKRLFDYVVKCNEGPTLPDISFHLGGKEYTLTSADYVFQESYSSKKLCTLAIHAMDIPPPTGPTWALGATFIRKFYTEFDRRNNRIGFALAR
Protocol: (§1) The reactions were performed with appropriate buffer in a 96-well plate with a final assay volume of 250 μL and probe and enzyme concentrations of 1 μM and 100 nM, respectively. The reactions were incubated at 37 C for Renin and room temperature for the other proteases. The buffer for human neutrophil Cathepsin G (BIOMOL) was 100 mM Tris (pH 7.5), 1.6 M NaCl. The buffer for Cathepsin D (BIOMOL) was 100 mM Formic Acid (pH 3.3). The buffer for recombinant human neutrophil elastase (Innovative Research) was 100 mM Tris (pH 7.5). The buffer for plasmin (CalBiochem) and trypsin (Sigma) was 1× phosphate buffered saline (PBS) (pH 7.4). The buffer for recombinant human Renin (rhRenin) (Proteos) and recombinant rat Renin (rrRenin) (Proteos) was 50 mM MOPS (pH 7.4), 100 mM NaCl, with freshly prepared 0.002% tween-20. The plate was incubated at the appropriate temperature and the activity was monitored at 24 hours with a Gemini (Molecular Devices) plate reader at excitation wavelength 663 nm, emission 690 nm, and cut off 665 nm. The released fluorescent unit was determined by subtracting the fluorescence of the probe alone from the total fluorescence.

[3] = target: T2, recombinant human neutrophil elastase (Homo sapiens, UniProt P08246); assay: Enzyme activation profile of R agents, neutrophil elastase; type: biochemical; settings: probe 1 μM, enzyme 100 nM, room temperature, 24 hours; FIG. 11
T2 construct: purchased Innovative Research
T2 sequence (P08246 30-267): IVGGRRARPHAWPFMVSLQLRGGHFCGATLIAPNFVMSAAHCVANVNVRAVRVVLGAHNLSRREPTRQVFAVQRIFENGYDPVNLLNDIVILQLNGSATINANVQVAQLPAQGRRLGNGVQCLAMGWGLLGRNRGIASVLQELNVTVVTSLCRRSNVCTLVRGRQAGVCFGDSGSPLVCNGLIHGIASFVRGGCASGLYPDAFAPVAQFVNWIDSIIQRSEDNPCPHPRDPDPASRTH
Protocol: as §1

[4] = target: T3, human neutrophil Cathepsin G (Homo sapiens, UniProt P08311); assay: Enzyme activation profile of R agents, Cathepsin G; type: biochemical; settings: probe 1 μM, enzyme 100 nM, room temperature, 24 hours; FIG. 11
T3 construct: purchased BIOMOL
T3 sequence (P08311 21-244): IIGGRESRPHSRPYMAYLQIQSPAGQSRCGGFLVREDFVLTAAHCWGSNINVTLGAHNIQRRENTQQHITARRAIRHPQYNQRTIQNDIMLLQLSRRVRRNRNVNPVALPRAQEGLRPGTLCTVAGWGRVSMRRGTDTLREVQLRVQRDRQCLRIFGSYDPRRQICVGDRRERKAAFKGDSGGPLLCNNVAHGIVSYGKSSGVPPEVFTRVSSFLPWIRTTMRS
Protocol: as §1

trypsin = assay: Enzyme activation profile of R agents, trypsin; type: biochemical; settings: probe 1 μM, enzyme 100 nM, room temperature, 24 hours; FIG. 11
Protocol: as §1

[5] = tested on: ovariectomized mice, tibia region; assay: Bone imaging, ovariectomy induced osteoporosis; type: in vivo, BALB/c female mice; settings: intravenous, 4 and 24 hours post-injection, fluorescence molecular tomography; FIG. 7
Protocol: BALB/c female mice 7 weeks old (Charles River Laboratory, Wilmington, Mass.) were subjected to ovariectomy or sham surgery to induce osteoporosis. After one to two weeks after surgery, the mice were injected intravenously with imaging agent [F5]-His-Gly-Pro-Asn-Lys(F5)-[PEG20kDa] (SEQ ID NO:427) (Agent Q94). Imaging was conducted at various time points using a Fluorescence Molecular Tomography system (VisEn Medical, Bedford, Mass.).

[6] = tested on: kidneys of mice on a low sodium diet; assay: Renal imaging, low sodium diet versus control diet; type: in vivo, C57BL6 mice; settings: intravenous 0.2-4 nmol/mouse, imaging at 24 hrs, fluorescence molecular tomography; FIG. 12
Protocol: C57BL6 mice (Jackson Laboratories) were fed a sodium deficient diet (0.02% Na) and water was replaced with a solution of amiloride (0.1 mg/5 mL or 5 mg/kg/day) for 2 days. Control C57BL6 mice were fed regular chow diet and water. Imaging agents [F5]-Lys-His-Pro-Phe-His-Leu-Val-Ile-His-Lys(F5)-[OH] (SEQ ID NO:401) (R20) and ([F5]-Lys-His-Pro-Phe-His-Leu-Val-Ile-His-Lys(F5)-[NHmPEG20k] (SEQ ID NO:428) (R21) were injected intravenously at different concentrations (0.2, 0.7, 2 and 4 nmol/mouse) following 2 days on a low salt diet. Imaging was conducted at 24 hrs using a Fluorescence Molecular Tomography system (VisEn Medical, Woburn Mass.).

[7] = target: T4, Recombinant human Cathepsin B (Homo sapiens, UniProt P07858); assay: Enzyme activation profile of Q65, Cathepsin B; type: biochemical; settings: probe 0.5 μM, enzyme 0.05 μM, room temperature, monitored 0-24 hours; FIG. 5
T4 construct: purchased R&D Systems
Protocol: The reactions were performed with appropriate buffer at room temperature in a 96-well plate with a final assay volume of 250 μL and probe and enzyme concentrations of 0.5 μM and 0.05 μM, respectively. The buffer for Cathepsin B was 25 mM MES (pH 5.0), 1 mM DTT. Recombinant human Cathepsin B (R&D Systems) was activated in buffer of 25 mM MES (pH 5.0) and 5 mM DTT for 15 minutes at room temperature. Recombinant human Cathepsin L (R&D Systems) was activated in buffer of 50 mM MES (pH 6.0), 5 mM DTT, for 15 minutes on ice. Recombinant mouse Cathepsin Z (R&D Systems) was activated in buffer of 25 mM NaOAc (pH 3.0), 5 mM DTT for 5 minutes at room temperature. The buffer for plasmin (CalBiochem) and trypsin (Sigma) was PBS at pH 7.4.
The plate was incubated at room temperature and the activity monitored at 0, 1, 3, 5, and 24 hours with a Gemini (Molecular Devices) plate reader at excitation wavelength 663 nm, emission 690 nm, and cut off 665 nm. The activity was calculated as the fold of activation by comparing the fluorescence of the enzyme with probe to the fluorescence of probe alone.

[8] = tested on: inflamed atherosclerotic plaques of high cholesterol fed apoE-/- mice; assay: Cardiovascular disease imaging, fluorescence reflectance; type: in vivo; settings: 2 nmol, 24 hours post-injection, ex vivo fluorescence reflectance imaging; FIG. 8
Protocol: High cholesterol fed apoE−/− mice were injected with 2 nmol of imaging agent and in vivo imaging was performed with ex vivo fluorescence reflectance imaging.

Q: For “[F5]-His-Gly-Pro-Arg-Lys(F5)-[PEG20kDa] (F5-HGPRK(F5)-PEG20kDa; reading uncertain; also: printed as [F5]-His-Gly-Pro-Arg-Lys(F5)-[PEG20kDa]) [Agent Q92]”, which “activation by Cathepsin K (released fluorescent unit)” value [1] is on record?
A: activated primarily by Cathepsin K

Q: How did the “activation by recombinant human renin (released fluorescent unit)” value (“activation by recombinant human renin” for short) [2] turn out when “[F5]-Lys-His-Pro-Phe-His-Leu-Val-Ile-His-Lys(F5)-[NHmPEG5k] (F5-KHPFHLVIHK(F5)-NHmPEG5k; reading uncertain; also: printed as [F5]-Lys-His-Pro-Phe-His-Leu-Val-Ile-His-Lys(F5)-[NHmPEG5k]) [Agent R27]” was run?
A: activated

Q: And the “activation by human neutrophil elastase (released fluorescent unit)” value [3]?
A: activated

Q: What about the “activation by human neutrophil cathepsin (released fluorescent unit)” value [4] of the same substance?
A: activated

Q: And the “activation by trypsin (released fluorescent unit)” value (trypsin)?
A: activated

Q: How did the “probe signal in tibia region, ovariectomized versus sham mice” value [5] turn out when “[F5]-His-Gly-Pro-Asn-Lys(F5)-[PEG20kDa] (F5-HGPNK(F5)-PEG20kDa; reading uncertain; also: printed as [F5]-His-Gly-Pro-Asn-Lys(F5)-[PEG20kDa]) [Agent Q94]” was run?
A: increased probe signal detected in the tibia region

Q: What does the source list for “[F5]-Lys-His-Pro-Phe-His-Leu-Val-Ile-His-Lys(F5)-[NHmPEG20k] (F5-KHPFHLVIHK(F5)-NHmPEG20k; reading uncertain; also: printed as [F5]-Lys-His-Pro-Phe-His-Leu-Val-Ile-His-Lys(F5)-[NHmPEG20k]) [Agent R21]”?
A: activation by recombinant human renin (released fluorescent unit) [2]: activated; activation by human neutrophil elastase (released fluorescent unit) [3]: activated; activation by human neutrophil cathepsin (released fluorescent unit) [4]: activated; activation by trypsin (released fluorescent unit) (trypsin): activated; kidney signal, low sodium diet versus control diet [6]: increased signal relative to the kidneys in the mice on the control diet

Q: For “[F5]-His-Gly-Pro-Asn-Lys(F5)-His-Gly-Pro-Asn-βA-[PEG20kDa] (F5-HGPNK(F5)HGPN[βAla]-PEG20kDa; reading uncertain; also: printed as [F5]-His-Gly-Pro-Asn-Lys(F5)-His-Gly-Pro-Asn-βA-[PEG20kDa]) [Agent Q93]”, which “activation by Cathepsin K (released fluorescent unit)” value [1] is on record?
A: activated primarily by Cathepsin K

Q: “[F5]-Lys-His-Pro-Phe-His-Cha-Val-Ile-His-Lys(F5)-[OH] (F5-KHPFH[Cha]VIHK(F5)-OH; reading uncertain; also: printed as [F5]-Lys-His-Pro-Phe-His-Cha-Val-Ile-His-Lys(F5)-[OH]) [Agent R24]” was tested. Which “activation by recombinant human renin” value [2] did it give?
A: activated primarily by recombinant human rennin

Q: For “[F5]-Lys-His-Pro-Phe-His-Leu-Val-Ile-His-Lys(F5)-[OH] (F5-KHPFHLVIHK(F5)-OH; reading uncertain; also: printed as [F5]-Lys-His-Pro-Phe-His-Leu-Val-Ile-His-Lys(F5)-[OH]) [Agent R20]”, which “activation by recombinant human renin” value [2] is on record?
A: activated primarily by recombinant human rennin

Q: What about the “kidney signal, low sodium diet versus control diet” value [6] of the same substance?
A: increased signal relative to the kidneys in the mice on the control diet

Q: For “Pentynoyl-Lys(F5)-Gly-Phe-Leu-Gly-βAla-Lys(F5)-PEG20kDa (Pent4ynoyl-K(F5)GFLG[βAla]K(F5)-PEG20kDa; reading uncertain; also: printed as Pentynoyl-Lys(F5)-Gly-Phe-Leu-Gly-βAla-Lys(F5)-PEG20kDa) [Agent Q65]”, which “activation by Cathepsin B (fold of activation)” value [7] is on record?
A: activated by Cathepsin B

Q: What about the “fluorescence in atherosclerotic plaques” value [8] of the same substance?
A: Fluorescence was detected in plaque-laden vascular sections in the aortic root, the arch and carotid arteries

Q: For “[F5]-Lys(Ac)-His-Pro-Phe-His-Leu-Val-Ile-His-Lys(F5)-[OH] (F5-K(Ac)HPFHLVIHK(F5)-OH; reading uncertain; also: printed as [F5]-Lys(Ac)-His-Pro-Phe-His-Leu-Val-Ile-His-Lys(F5)-[OH]) [Agent R23]”, which “activation by recombinant human renin” value [2] is on record?
A: activated primarily by recombinant human rennin
